Measurements reported in patent US20210032298.

T1: Myc-tagged CMTM6 C90S+C115S double mutant (expressed in HEK293 cells)
T1 chain: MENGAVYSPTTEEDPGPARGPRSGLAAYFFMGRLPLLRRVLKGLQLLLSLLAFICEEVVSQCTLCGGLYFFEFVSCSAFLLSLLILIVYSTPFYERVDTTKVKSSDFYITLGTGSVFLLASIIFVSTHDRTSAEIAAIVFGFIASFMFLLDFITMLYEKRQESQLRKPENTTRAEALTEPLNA

T2: Myc-tagged CMTM6 C115S mutant (expressed in HEK293 cells)
T2 chain: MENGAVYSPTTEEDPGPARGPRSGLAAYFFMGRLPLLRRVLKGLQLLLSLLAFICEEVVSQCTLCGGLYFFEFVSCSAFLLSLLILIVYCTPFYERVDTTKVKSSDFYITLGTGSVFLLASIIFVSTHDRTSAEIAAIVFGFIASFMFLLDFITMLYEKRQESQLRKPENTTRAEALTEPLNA

T3: Myc-tagged CMTM6, wild type (expressed in HEK293 cells)
T3 chain: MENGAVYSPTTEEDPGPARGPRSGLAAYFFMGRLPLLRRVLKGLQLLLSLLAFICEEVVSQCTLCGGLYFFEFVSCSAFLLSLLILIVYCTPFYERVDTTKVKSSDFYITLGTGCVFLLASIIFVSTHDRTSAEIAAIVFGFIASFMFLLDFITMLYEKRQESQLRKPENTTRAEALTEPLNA

T4: Myc-tagged CMTM6 C90S mutant (expressed in HEK293 cells)
T4 chain: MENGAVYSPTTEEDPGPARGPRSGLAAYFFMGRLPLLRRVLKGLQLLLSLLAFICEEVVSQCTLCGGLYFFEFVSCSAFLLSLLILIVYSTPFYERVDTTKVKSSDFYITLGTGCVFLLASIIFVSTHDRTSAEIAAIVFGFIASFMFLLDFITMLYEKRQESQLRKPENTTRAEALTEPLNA

T5: transmembrane protein 192 (TMEM192), Q8IY95
T5 chain: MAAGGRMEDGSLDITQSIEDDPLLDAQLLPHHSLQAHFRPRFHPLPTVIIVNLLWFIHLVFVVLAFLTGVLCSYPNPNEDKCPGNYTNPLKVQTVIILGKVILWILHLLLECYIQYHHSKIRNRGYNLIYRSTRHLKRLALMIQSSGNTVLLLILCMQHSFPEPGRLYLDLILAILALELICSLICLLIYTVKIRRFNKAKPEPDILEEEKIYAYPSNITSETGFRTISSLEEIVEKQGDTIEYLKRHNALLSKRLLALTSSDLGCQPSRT

T6: Niemann-Pick C1 (NPC1; endogenous, in MDA-MB-231 cells), O15118
T6 chain: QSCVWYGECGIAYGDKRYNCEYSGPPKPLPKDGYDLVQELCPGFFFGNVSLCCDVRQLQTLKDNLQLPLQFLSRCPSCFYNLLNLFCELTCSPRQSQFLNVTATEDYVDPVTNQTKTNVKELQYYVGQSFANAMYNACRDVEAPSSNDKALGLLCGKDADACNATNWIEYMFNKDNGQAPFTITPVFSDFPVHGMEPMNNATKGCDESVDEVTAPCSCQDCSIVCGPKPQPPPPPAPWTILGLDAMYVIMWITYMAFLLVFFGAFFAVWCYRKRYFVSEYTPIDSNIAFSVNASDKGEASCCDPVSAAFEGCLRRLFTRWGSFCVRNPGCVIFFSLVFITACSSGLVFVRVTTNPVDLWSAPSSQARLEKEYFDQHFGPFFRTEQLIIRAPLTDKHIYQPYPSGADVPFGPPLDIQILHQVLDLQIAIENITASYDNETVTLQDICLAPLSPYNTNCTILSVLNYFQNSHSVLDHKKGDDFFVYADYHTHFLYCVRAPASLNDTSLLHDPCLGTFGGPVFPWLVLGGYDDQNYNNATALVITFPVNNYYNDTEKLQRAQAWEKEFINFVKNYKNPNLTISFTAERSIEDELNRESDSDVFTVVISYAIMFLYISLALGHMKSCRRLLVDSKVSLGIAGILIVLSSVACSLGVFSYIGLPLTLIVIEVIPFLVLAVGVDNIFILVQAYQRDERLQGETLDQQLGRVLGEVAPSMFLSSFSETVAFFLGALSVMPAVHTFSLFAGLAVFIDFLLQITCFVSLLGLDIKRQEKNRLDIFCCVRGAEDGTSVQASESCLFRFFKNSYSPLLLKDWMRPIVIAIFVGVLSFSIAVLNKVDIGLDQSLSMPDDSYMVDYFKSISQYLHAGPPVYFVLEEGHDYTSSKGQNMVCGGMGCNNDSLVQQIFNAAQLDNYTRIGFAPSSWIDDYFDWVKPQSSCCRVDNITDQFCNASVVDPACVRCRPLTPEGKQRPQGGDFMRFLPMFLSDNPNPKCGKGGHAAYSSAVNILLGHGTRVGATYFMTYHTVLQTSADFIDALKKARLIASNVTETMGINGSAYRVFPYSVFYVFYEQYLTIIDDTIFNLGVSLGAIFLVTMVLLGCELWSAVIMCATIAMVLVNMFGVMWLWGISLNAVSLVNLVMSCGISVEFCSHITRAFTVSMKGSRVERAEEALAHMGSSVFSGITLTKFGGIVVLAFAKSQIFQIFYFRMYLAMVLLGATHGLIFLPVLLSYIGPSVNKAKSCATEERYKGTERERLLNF


Columns and labels:
[1] = molecular target: T1, Myc-tagged CMTM6 C90S+C115S double …
[2] = molecular target: T2, Myc-tagged CMTM6 C115S mutant …
[3] = molecular target: T3, Myc-tagged CMTM6, wild type (expressed …)
[4] = molecular target: T4, Myc-tagged CMTM6 C90S mutant (expressed …)
[5] = molecular target: T5, transmembrane protein 192 (TMEM192), …
[6] = molecular target: T6, Niemann-Pick C1 (NPC1; endogenous, in …)

| Protein | incorporation of 3[H]-palmitate into immunoprecipitated Myc-CMTM6 (HEK293 over-expression) [1] | incorporation of 3[H]-palmitate into immunoprecipitated Myc-CMTM6 (HEK293 over-expression) [2] | incorporation of 3[H]-palmitate into immunoprecipitated Myc-CMTM6 (HEK293 over-expression) [3] | incorporation of 3[H]-palmitate into immunoprecipitated Myc-CMTM6 (HEK293 over-expression) [4] | palmitoylation of the substrate after DHHC3 ablation [5] | palmitoylation of the substrate after DHHC3 ablation [6] |
| --- | --- | --- | --- | --- | --- | --- |
| FLAG-tagged DHHC3 (over-expressed in HEK293 cells) (protein) MMLIPTHHFRNIERKPEYLQPEKCVPPPYPGPVGTMWFIRDGCGIACAIVTWFLVLYAEFVVLFVMLIPSRDYVYSIINGIVFNLLAFLALASHCRAMLTDPGAVPKGNATKEFIESLQLKPGQVVYKCPKCCSIKPDRAHHCSVCKRCIRKMDHHCPWVNNCVGENNQKYFVLFTMYIALISLHALIMVGFHFLHCFEEDWTKCSSFSPPTTVILLILLCFEGLLFLIFTSVMFGTQVHSICTDETGIEQLKKEERRWAKKTKWMNMKAVFGHPFSLGWASPFATPDQGKADPYQYVV | both mutations together (C90S+C115S) did not diminish palmitoylation (FIG. 23A, lane 6) more than C90S alone | a C115 mutation did not diminish incorporation of 3[H]-palmitate | CMTM6 incorporates 3[H]-palmitate when DHHC3 is present (FIG. 23A, lane 3), but not when DHHC3 is absent (FIG. 23A, lane 2) | mutation of C90 (C→S) caused palmitoylation to be diminished by ˜50% |  |  |
| DHHC3 (protein acyltransferase; endogenous, in MDA-MB-231 cells) (protein) MMLIPTHHFRNIERKPEYLQPEKCVPPPYPGPVGTMWFIRDGCGIACAIVTWFLVLYAEFVVLFVMLIPSRDYVYSIINGIVFNLLAFLALASHCRAMLTDPGAVPKGNATKEFIESLQLKPGQVVYKCPKCCSIKPDRAHHCSVCKRCIRKMDHHCPWVNNCVGENNQKYFVLFTMYIALISLHALIMVGFHFLHCFEEDWTKCSSFSPPTTVILLILLCFEGLLFLIFTSVMFGTQVHSICTDETGIEQLKKEERRWAKKTKWMNMKAVFGHPFSLGWASPFATPDQGKADPYQYVV |  |  |  |  | 4/4 putative DHHC3 substrates (ERGIC3, CMTM6, NPC1, transmembrane protein 192 (TMEM192)) lose substantial palmitoylation when DHHC3 is ablated | 4/4 putative DHHC3 substrates (ERGIC3, CMTM6, NPC1, transmembrane protein 192 (TMEM192)) lose substantial palmitoylation when DHHC3 is ablated |
